# Source: patent publication US20200317768A1 (published 2020)
# Positions count from the first letter of the chain named.
# T1: human FcγRIIaR extracellular domain, His-tagged (human, UniProt P12318 34-217)
# T1 construct: also called human FcγRIIa (type R); FcgRIIaR; not shown: His-tag added to the C-terminus
# T1 chain: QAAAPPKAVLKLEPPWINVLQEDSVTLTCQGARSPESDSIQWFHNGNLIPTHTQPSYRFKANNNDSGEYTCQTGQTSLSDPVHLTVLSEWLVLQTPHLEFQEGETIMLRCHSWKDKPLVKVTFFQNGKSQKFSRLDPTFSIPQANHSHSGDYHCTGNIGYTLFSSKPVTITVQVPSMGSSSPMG
# T2: human FcγRIIb extracellular domain, His-tagged (human, UniProt P31994 43-217)
# T2 construct: also called FcgRIIb (human); not shown: His-tag added to the C-terminus
# T2 sequence: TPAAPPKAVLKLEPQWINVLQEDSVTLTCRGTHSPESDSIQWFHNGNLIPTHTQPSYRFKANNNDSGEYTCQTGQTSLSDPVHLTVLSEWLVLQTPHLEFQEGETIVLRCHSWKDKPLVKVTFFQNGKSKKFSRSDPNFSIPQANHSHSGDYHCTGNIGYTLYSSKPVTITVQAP
# T3: cynomolgus monkey FcγRIIa1 extracellular domain, His-tagged (cynomolgus monkey)
# T3 construct: also called cyno FcγRIIa1; FcgRIIa1; not shown: His-tag added to the C-terminus
# T3 chain: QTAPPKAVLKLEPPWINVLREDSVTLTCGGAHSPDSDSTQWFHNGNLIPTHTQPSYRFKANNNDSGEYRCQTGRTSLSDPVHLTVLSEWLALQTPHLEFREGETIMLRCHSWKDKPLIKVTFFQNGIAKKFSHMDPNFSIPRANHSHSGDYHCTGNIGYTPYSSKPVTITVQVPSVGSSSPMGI
# T4: cynomolgus monkey FcγRIIa2 extracellular domain, His-tagged (cynomolgus monkey)
# T4 construct: also called cyno FcγRIIa2; FcgRIIa2; not shown: His-tag added to the C-terminus
# T4 chain: T3 chain with P95T, T121A, I127K, A128S, K130N, D135N, R142Q
# T5: cynomolgus monkey FcγRIIa3 extracellular domain, His-tagged (cynomolgus monkey)
# T5 construct: also called cyno FcγRIIa3; FcgRIIa3; not shown: His-tag added to the C-terminus
# T5 chain: T3 chain with P95T, T121A, A128S, H133P, D135N
# T6: cynomolgus monkey FcγRIIb extracellular domain, His-tagged (cynomolgus monkey)
# T6 construct: also called cyno FcγRIIb; cynoFcγRIIb; not shown: His-tag added to the C-terminus
# T6 chain: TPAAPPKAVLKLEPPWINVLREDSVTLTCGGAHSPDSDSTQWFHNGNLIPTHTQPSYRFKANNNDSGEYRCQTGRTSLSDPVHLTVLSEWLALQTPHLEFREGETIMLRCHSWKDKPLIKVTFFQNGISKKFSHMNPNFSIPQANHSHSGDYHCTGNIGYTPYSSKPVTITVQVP
# T7: human FcγRIIaH extracellular domain, His-tagged (human, UniProt P12318 34-217)
# T7 construct: also called human FcγRIIa (type H); FcgRIIaH; not shown: His-tag added to the C-terminus
# T7 sequence: T1 chain with R134H
# B1: M103205H795-MY329 / M103202L889-SK1 (antibody, human IgG1, kappa)
# heavy: QVTLKESGPVLVKPTETLTLTCTVSGIDLSHDDISWVRQAPGKGLEWVGIISYAGSTYYASWAKGRLTISKDTSKNQVVLTMTNMDPVDTATYYCARGVPAYSHGGDLWGQGTLVTVSSASTKGPSVFPLAPSSKSTSGGTAALGCLVKDYFPEPVTVSWNSGALTSGVHTFPAVLQSSGLYSLSSVVTVPSSSLGTQTYICNVNHKPSNTKVDKKVEPKSCDKTHTCPPCPAPELLDGPSVFLFPPKPKDTLMISRTPEVTCVVVDVSDEDPEVKFNWYVDGVEVHNAKTKPREELYNSTYRVVSVLTVLHQDWLNGKEYKCKVSNKALPKPIEKTISKAKGQPREPQVYTLPPSREEMTKNQVSLTCLVKGFYPSDIAVEWESNGQPENNYKTTPPVLDSDGSFFLYSKLTVDKSRWQQGNVFSCSVMHEALHNHYTQKSLSLSP
# light: DIVMTQSPATLSLSPGERATLSCTSSQSVYHANWLSWFQQKPGQPPKLLIYWASTLAYGVPSRFSGSGSGTDFTLTISSLQPEDAATYYCAGGYGGGRYAFGQGTKVEIKRTVAAPSVFIFPPSDEQLKSGTASVVCLLNNFYPREAKVQWKVDNALQSGNSQESVTEQDSKDSTYSLSSTLTLSKADYEKHKVYACEVTHQGLSSPVTKSFNRGEC
# notes: Fc variant made by introducing the substitutions into M103205H795-SG1; the list of substitutions runs over r151c2 and r152c2; Expressed with M103202L889-SK1 as light chain
# B2: M103205H795-MY327 / M103202L889-SK1 (antibody, human IgG1, kappa)
# heavy: B1 heavy with D270E
# light: B1 light
# notes: Fc variant made by introducing the substitutions into M103205H795-SG1; the list of substitutions runs over r149c2 and r150c2; Expressed with M103202L889-SK1 as light chain
# B3: M103205H795-MY325 / M103202L889-SK1 (antibody, human IgG1, kappa)
# heavy: B1 heavy with L297Q
# light: B1 light
# notes: expressed with M103202L889-SK1 as light chain
# Target: T1, human FcγRIIaR extracellular domain, …
# Experiment: SPR (BIACORE), antibody captured on chip, FcγR as analyte, 25 C; KD of SG1 divided by KD of the variant
# Method: (§1) After the measurement, the antibody captured on the chip was washed off by allowing reaction with 10 mM glycine-HCl, pH1.5 and 25 mM NaOH so that the chip was regenerated and used repeatedly. The sensorgrams obtained as measurement results were analyzed by the 1:1 Langmuir binding model using the BIACORE® Evaluation Software to calculate the binding rate constant ka (L/mol/s) and dissociation rate constant kd (l/s), and the dissociation constant KD (mol/L) was calculated from these values. […] Regarding such interactions, KD values were calculated using the following 1:1 binding model described in BIACORE® T100 Software Handbook BR1006-48 Edition AE.
# (§2) The behavior of interacting molecules according to the 1:1 binding model on BIACORE® can be described by Equation 1: Req=C·R max/(KD+C)+RI, wherein, Req is a plot of steady-state binding levels to analyte concentration. C is concentration, RI is bulk refractive index contribution in the sample, and Rmax is analyte binding capacity of the surface. When this equation is rearranged, KD can be expressed as Equation 2: KD=C·Rmax/(Req−RI)−C. KD can be calculated by substituting the values of Rmax, RI, and C into Equation 1 or Equation 2. From the current measurement conditions, RI=0, C=2 μmol/L can be used.
row,KD fold for humanFcgRs (SG1 = 1) [fold],Binder
1,5.2,B1
2,3.3,B2
3,3.7,B3

# Target: T2, human FcγRIIb extracellular domain, …
# Experiment: as above
# Method: as §1, §2
row,KD fold for humanFcgRs (SG1 = 1) [fold],Binder
1,28.8,B1
2,27,B2
3,17.7,B3

# Target: T8, human FcγRIIIaV extracellular domain, His-tagged (human, UniProt P08637 17-208)
# T8 construct: also called human FcγRIIIa (allotype V158); FcgRIIIaV; not shown: His-tag added to the C-terminus
# T8 sequence (P08637 17-208 F176V): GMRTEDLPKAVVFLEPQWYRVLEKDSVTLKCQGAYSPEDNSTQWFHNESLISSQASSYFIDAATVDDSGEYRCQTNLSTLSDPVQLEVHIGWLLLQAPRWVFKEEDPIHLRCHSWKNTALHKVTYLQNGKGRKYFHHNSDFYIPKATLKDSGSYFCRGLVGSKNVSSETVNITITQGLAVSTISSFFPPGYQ
# Experiment: as above
# Method: as §1, §2
row,KD fold for humanFcgRs (SG1 = 1) [fold],Binder
1,0.13,B1
2,0.08,B2
3,0.1,B3

# Target: T3, cynomolgus monkey FcγRIIa1 …
# Experiment: as above
# Method: as §1, §2
row,KD fold for cynoFcgRs (SG1 = 1) [fold],Binder
1,1.7,B1
2,0.9,B2
3,0.8,B3

# Target: T4, cynomolgus monkey FcγRIIa2 …
# Experiment: as above
# Method: as §1, §2
row,KD fold for cynoFcgRs (SG1 = 1) [fold],Binder
1,1.6,B1
2,1.1,B2
3,1.2,B3

# Target: T5, cynomolgus monkey FcγRIIa3 …
# Experiment: as above
# Method: as §1, §2
row,KD fold for cynoFcgRs (SG1 = 1) [fold],Binder
1,4.6,B1
2,3.2,B2
3,2.9,B3

# Target: T6, cynomolgus monkey FcγRIIb extracellular …
# Experiment: as above
# Method: as §1, §2
row,KD fold for cynoFcgRs (SG1 = 1) [fold],Binder
1,3.1,B1
2,1.8,B2
3,1.8,B3

# Target: T9, cynomolgus monkey FcγRIIIaS extracellular domain, His-tagged (cynomolgus monkey, UniProt A3RFZ7 21-206 (rhesus entry))
# T9 construct: also called cyno FcγRIIIaS; FcgRIIIaS; not shown: His-tag added to the C-terminus
# T9 sequence (A3RFZ7 21-206): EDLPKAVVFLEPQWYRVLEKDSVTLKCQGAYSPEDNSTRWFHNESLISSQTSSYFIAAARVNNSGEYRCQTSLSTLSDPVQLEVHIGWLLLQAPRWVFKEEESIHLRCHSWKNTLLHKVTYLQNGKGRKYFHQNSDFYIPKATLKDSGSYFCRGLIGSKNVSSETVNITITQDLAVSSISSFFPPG
# Experiment: as above
# Method: as §1, §2
row,KD fold for cynoFcgRs (SG1 = 1) [fold],Binder
1,0.16,B1
2,0.08,B2
3,0.09,B3

# Target: T7, human FcγRIIaH extracellular domain, …
# Experiment: as above
# Method: as §1, §2
row,KD fold for humanFcgRs (SG1 = 1) [fold],Binder
1,2.6,B1
2,2,B2
3,1.4,B3
